From publication PMC7483473

Target: mNeonGreen labeled metabotropic glutamate receptor 3, Q14832
Assay: stepwise photobleaching (subunit counting) of single complexes by TIRF; SPReAD: expressing cells co-plated with VSVG-U2OS cells (typically 10:1), fused at pH 5.5, syncytia fixed with 4% paraformaldehyde, room temperature; mGluR lines were HEK293T fused with U2OS
Conditions: remark: other sources report otherwise

fraction by stepwise photobleaching (dimer fraction, as the sentence seems to mean): 33.5%
B1: mNeonGreen labeled metabotropic glutamate receptor 3, Q14832 23-879 (receptor)
chain: LGDHNFLRREIKIEGDLVLGGLFPINEKGTGTEECGRINEDRGIQRLEAMLFAIDEINKDDYLLPGVKLGVHILDTCSRDTYALEQSLEFVRASLTKVDEAEYMCPDGSYAIQENIPLLIAGVIGGSYSSVSIQVANLLRLFQIPQISYASTSAKLSDKSRYDYFARTVPPDFYQAKAMAEILRFFNWTYVSTVASEGDYGETGIEAFEQEARLRNICIATAEKVGRSNIRKSYDSVIRELLQKPNARVVVLFMRSDDSRELIAAASRANASFTWVASDGWGAQESIIKGSEHVAYGAITLELASQPVRQFDRYFQSLNPYNNHRNPWFRDFWEQKFQCSLQNKRNHRRVCDKHLAIDSSNYEQESKIMFVVNAVYAMAHALHKMQRTLCPNTTKLCDAMKILDGKKLYKDYLLKINFTAPFNPNKDADSIVKFDTFGDGMGRYNVFNFQNVGGKYSYLKVGHWAETLSLDVNSIHWSRNSVPTSQCSDPCAPNEMKNMQPGDVCCWICIPCEPYEYLADEFTCMDCGSGQWPTADLTGCYDLPEDYIRWEDAWAIGPVTIACLGFMCTCMVVTVFIKHNNTPLVKASGRELCYILLFGVGLSYCMTFFFIAKPSPVICALRRLGLGSSFAICYSALLTKTNCIARIFDGVKNGAQRPKFISPSSQVFICLGLILVQIVMVSVWLILEAPGTRRYTLAEKRETVILKCNVKDSSMLISLTYDVILVILCTVYAFKTRKCPENFNEAKFIGFTMYTTCIIWLAFLPIFYVTSSDYRVQTTTMCISVSLSGFVVLGCLFAPKVHIILFQPQKNVVTHRLHLNRFSVSGTGTTYSQSSASTYVPTVCNGREVLDSTTSSL
